Reference: publication PMC8253768, “Structural plasticity of mumps virus nucleocapsids with cryo-EM structures” (Communications Biology, 2021)
Several values for one entry are separate records, joined by “and”; a condition that tells them apart may be missing. Equal entries are not always repeated.

Experiments:
[1] = molecular target: Aged MuV nucleoprotein (NWT kept at 4 °C for 4 weeks, digested by residual impurities) (mumps virus) (UniProt Q77IS8); experiment: cryo-EM structure; filaments of NWT after 4 weeks of digestion at 4 °C; helical reconstruction of three classes (NC_(helix-dense), NC_(helix-hyper), N_(ring-stacked) with C13 symmetry); with enwrapped RNA
[2] = molecular target: the molecule itself; experiment: cryo-EM structure; single particle analysis of freshly purified NWT rings with enwrapped E. coli RNA; ~1 mg/mL; 20 mM Tris-HCl pH 7.4, 150 mM NaCl; micrographs at 0°, 20° and 40° tilt; 2D classification and refinement with C13 or C14 symmetry

Row | Molecule | stoichiometry N [1] [protomers] | stoichiometry N [2]
1 | Aged MuV nucleoprotein (NWT kept at 4 °C for 4 weeks, digested by residual impurities) (from UniProt Q77IS8 1-549) (domain or fragment) | 13 | –
2 | Mumps virus (MuV) nucleoprotein, full length (1–549), freshly purified (natural protein, Mumps virus nucleoprotein (N), full-length gene 1–549, synthesized by GenScript, cloned into pET28b; Purified with enwrapped endogenous E. coli RNA; Only residues 1–373 are resolved in the maps; also called NWT; MuV nucleoproteins; source: E. coli, purified (nickel-nitrilotriacetic acid resin, Superose 6 gel filtration), freshly made) MSSVLKAFERFTIEQELQDRGEEGSIPPETLKSAVKVFVINTPNPTTRYQMLNFCLRIICSQNARASHRVGALITLFSLPSAGMQNHIRLADRSPEAQIERCEIDGFEPGTYRLIPNARANLTANEIAAYALLADDLPPTINNGTPYVHADVEGQPCDEIEQFLDRCYSVLIQAWVMVCKCMTAYDQPAGSADRRFAKYQQQGRLEARYMLQPEAQRLIQTAIRKSLVVRQYLTFELQLARRQGLLSNRYYAMVGDIGKYIENSGLTAFFLTLKYALGTKWSPLSLAAFTGELTKLRSLMMLYRGLGEQARYLALLEAPQIMDFAPGGYPLIFSYAMGVGTVLDVQMRNYTYARPFLNGYYFQIGVETARRQQGTVDNRVADDLGLTPEQRTEVTQLVDRLARGRGAGIPGGPVNPFVPPVQQQQPAAVYEDIPALEESDDDGDEDGGAGFQNGVQLPAVRQGGQTDFRAQPLQDPIQAQLFMPLYPQVSNMPNNQNHQINRIGGLEHQDLLRYNENGDSQQDARGEHVNTFPNNPNQNAQLQVGDWDE | – | 13 protomers and 14 protomers
